Test results as given in patent US20140219913A1.

Biological target: TNF-alpha
Assay: cell-based or functional assay

Etanercept (Fc fusion) showed a N-terminal L929 Assay (EC50, pM) of 1.5 pM.
